From the nanobody polyreactivity screen of Harvey et al. (2022) come the findings set out here.

A short description of the series: yeast display, Sf9 membrane polyspecificity reagent, FACS + sequencing; frameworks hold sequencing errors. An outline of the steps: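 Genes from sorted yeast were amplified by colony PCR, read by MiSeq 2 × 250 sequencing and filtered on CDR length. These cells carried a synthetic nanobody library in Saccharomyces cerevisiae BJ5465 and were sorted by FACS into low and high (top ~1%) gates on anti-HA and streptavidin fluorescence. Polyreactivity is labelled according to the gate of origin.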
In the case of “QVQLVESGGGLVQAGGSLRLSCAASGITFNYAMGWYRQAPGKERELVAAISRRGGSTYYADSVKGRFTISRDNAKNTVYLQMNSLKPEDTAVYYCNTTVWGSYYYWGQGTQVTVSS”, the “polyreactivity (PSR sort gate)” value is reported as “high polyreactivity”. Under “QVQLVESGGGLVQAGGSLRLICAASGRIFATYTMGWYRQAPGKERELVAAISRNGGSTYYADSVKGRFTISRDYAKNTVYLQMNSLKTEDTAVYYCNAERRDDRGFDYWGQGTQVTVSS” stands “low polyreactivity”.

Take “QVQLVESGGGLVQAGGSLRLSCAASGFIFSRYVMGWYRQAPGKEREFVAAISSSGGSTYYADSVKGRFTISRDNAKNTVYLQMNSLKPEDTAVYYCATRLGRYYRVGFDYWGQGNQVTVSS”: the “polyreactivity (PSR sort gate)” value was “high polyreactivity”. The value for “QVQLVESGGGLVQAGGSLRLSCAASGFIFYFNAMGWYRQAPGKERELVAAISASGGRTYFADSVKGRFTISRDNAKNTVYLLMNSLKPEDTAVYYCAARGGSYYFRRYNYWGQGTQVNVSS” was “high polyreactivity”; that for “QVQLVESGGGLVQAGGSLRLSSPASGFNFKSNCMGWYRQAPGKERELIADIRRSVGSTYYADYVKGRFTISRDNAKNTVYLQMNSLKPEDTSVYYCNAKYIKGRDWGQCTQVTVSS” was “high polyreactivity”; that for “QVQLVESGGGLVQAGGSLRLSCAASGLIFQYYVMGWYRQAPGKERQLVAAISARGGGTYYADSVKGRFTISRDNAKNTVYLQMNSLKPEDTAVYYCAADPVYAGPGYDYWGQGTQVTVSS” was “high polyreactivity”. Under “QVQLVESGGGLVQAGGSLRLTCAASGRTFEQNAMGWNRPAPGKERELVASITSVGSTDYADSVKGRFTISRDNAKNTVYLQMNSLKPEDTAVYYCAKTLGSQNYDFDYWGQGTQVTVSS” stands “low polyreactivity”; under “QVQLVESGGGLVQAGGSLRLICAASGITFNKYSMGWYRQAPGKERELVAAISSRGCSTYYADSVKGRFTISRDNAKNTVYLQMNSLKPEYTAVYYCAAERGTTYAYDYWGQGTQVTVSS”, “high polyreactivity”; under “QVQLEESGGGLVQAGGSLRLSCAASGSTFDVYAMGWYRQAPGKERELVAAISRSGGSTYYADSVKGRFTISRDTAKTTVYLQMNSLQPEDTAVYYCNARLARWGSYEYNYWGQGTQVTVSS”, “low polyreactivity”. Under “QVQLVESGGGLVQAGGSLRLSCAASGRIFKGYAMGWYRQAPGKERELVAAITWRGGTTYYADSVKGPFTISRDNAKNTVYLQMNSLKPEDTAVYYCAAANWQRYYYWGQGTQVTVSS” stands “high polyreactivity”; under “QVQLVESGGRLVQAGGSLRLSCAASGSIFDNYVMGWYRQAPGKERELVAAINSSGGSTYYADSVKGRFTISRDNAKNTVYLQMNSLKPEDTAVYYCIATDGITPYDLTDIEFDYWGQGTQVTVSS”, “low polyreactivity”. Turning to “QVQLVESGGGLVQAGGSLRLSCAASGSIYDSYAMGWYRQAPGKERELVATINTSGGSTYYADSVKGRFTIHDNAKNTVYLQMNSLKPEDTAVYYCNAGRWVYWQNNFGDYGYWGQGTQVTVSS”, the “polyreactivity (PSR sort gate)” value is “low polyreactivity”. The value for “QVQLVESGGGLVQAGGSLRLSCAASGRNFIYNAMGWYRQAPGKERELVAAISRSGGSTNYADSVKGRFTISRDNAKNTVYLQMNSLKPEDTAVYYCAVDSGRYYYYLGFSTRYYWGQGTQVTVSS” was “high polyreactivity”; that for “QVQLVESGGGLVQAGGSLRLSCAASGLIFYRNALGWYRQEPGKERELVATISRRGGRTYYADSVKGRFTISRDNAKNTVYLQMNSLNPEDTAVYYCNADDYSSRGGYDSWGQGTQVTVSS” was “high polyreactivity”. Take “QVQLVESGGGIVQAGGSLRLSCAASGRIFYYYAMGWYRQAPGKESELVAAISRSGGRTYYADSVKGRFTISRDNAKNTVYLHMNSLKPEDTAVYYCNVVRQGGTLGYDYWGQGTQVTVSS”: the “polyreactivity (PSR sort gate)” value is reported as “high polyreactivity”.

As to “QVQLVESGGGLVQAGGSLRLSCAASGSILHPNGMGWYRQAPGKERELVAAITINGDSTYYADSVKGRFTISRDNAKNTVYLQMNSLKPEDTAVYYCAVDGWPTGWYYYWGQGTQVTVSS”, the “polyreactivity (PSR sort gate)” value is recorded as “low polyreactivity”.
